Test results reported in the supplement of paper PMC5998384.

Columns and labels:
HeLa Kyoto [1] = test: solubility change mitosis vs G1/S (difference of NP-40 vs SDS log2 ratios) (log2 ratio difference); higher = more soluble in mitosis
HeLa Kyoto [2] = test: solubility in G1/S (NP-40 vs SDS abundance) (log2 ratio); higher = more soluble; conditions: cell cycle stage: G1/S
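Throughout, for solubility change mitosis vs G1/S (difference of NP-40 vs SDS log2 ratios): synchronized HeLa Kyoto cells (double thymidine block for G1/S, nocodazole release for mitosis), protein amounts in NP-40 versus SDS lysates quantified by mass spectrometry, three biological replicates.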
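Throughout, for solubility in G1/S (NP-40 vs SDS abundance): HeLa Kyoto cells arrested at G1/S by double thymidine block, proteins quantified by TMT10plex mass spectrometry in mild NP-40 versus SDS extracts, three biological replicates.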

| Sequence | solubility change mitosis (log2) (HeLa Kyoto [1]) | solubility in G1/S (log2) (HeLa Kyoto [2]) |
| --- | --- | --- |
| MPLSSPNAAATASDMDKNSGSNSSSASSGSSKGQQPPRSASAGPAGESKPKSDGKNSSGSKRYNRKRELSYPKNESFNNQSRRSSSQKSKTFNKMPPQRGGGSSKLFSSSFNGGRRDEVAEAQRAEFSPAQFSGPKKINLNHLLNFTFEPRGQTGHFEGSGHGSWGKRNKWGHKPFNKELFLQANCQFVVSEDQDYTAHFADPDTLVNWDFVEQVRICSHEVPSCPICLYPPTAAKITRCGHIFCWACILHYLSLSEKTWSKCPICYSSVHKKDLKSVVATESHQYVVGDTITMQLMKREKGVLVALPKSKWMNVDHPIHLGDEQHSQYSKLLLASKEQVLHRVVLEEKVALEQQLAEEKHTPESCFIEAAIQELKTREEALSGLAGSRREVTGVVAALEQLVLMAPLAKESVFQPRKGVLEYLSAFDEETTEVCSLDTPSRPLALPLVEEEEAVSEPEPEGLPEACDDLELADDNLKEGTICTESSQQEPITKSGFTRLSSSPCYYFYQAEDGQHMFLHPVNVRCLVREYGSLERSPEKISATVVEIAGYSMSEDVRQRHRYLSHLPLTCEFSICELALQPPVVSKETLEMFSDDIEKRKRQRQKKAREERRRERRIEIEENKKQGKYPEVHIPLENLQQFPAFNSYTCSSDSALGPTSTEGHGALSISPLSRSPGSHADFLLTPLSPTASQGSPSFCVGSLEEDSPFPSFAQMLRVGKAKADVWPKTAPKKDENSLVPPAPVDSDGESDNSDRVPVPSFQNSFSQAIEAAFMKLDTPATSDPLSEEKGGKKRKKQKQKLLFSTSVVHTK [RNF10] | -0.000862 | -0.172 |
| MPQKDPCQKQACEIQKCLQANSYMESKCQAVIQELRKCCAQYPKGRSVVCSGFEKEEEENLTRKSASK [CMC4] | 0.221 | -1.4 |
| MPSRAEDYEVLYTIGTGSYGRCQKIRRKSDGKILVWKELDYGSMTEAEKQMLVSEVNLLRELKHPNIVRYYDRIIDRTNTTLYIVMEYCEGGDLASVITKGTKERQYLDEEFVLRVMTQLTLALKECHRRSDGGHTVLHRDLKPANVFLDGKQNVKLGDFGLARILNHDTSFAKTFVGTPYYMSPEQMNRMSYNEKSDIWSLGCLLYELCALMPPFTAFSQKELAGKIREGKFRRIPYRYSDELNEIITRMLNLKDYHRPSVEEILENPLIADLVADEQRRNLERRGRQLGEPEKSQDSSPVLSELKLKEIQLQERERALKAREERLEQKEQELCVRERLAEDKLARAENLLKNYSLLKERKFLSLASNPELLNLPSSVIKKKVHFSGESKENIMRSENSESQLTSKSKCKDLKKRLHAAQLRAQALSDIEKNYQLKSRQILGMR [NEK2] | 0.191 | -0.123 |
| MPSSTSPDQGDDLENCILRFSDLDLKDMSLINPSSSLKAELDGSTKKKYSFAKKKAFALFVKTKEVPTKRSFECKEKLWKCCRQLFTDQTSIHRHVATQHADEIYHQTASILKQLAVTLSTSKSLSSADEKNPLKECLPHSHDVSAWLPDISCFNPDELISGQGSEEGEVLLYYCYHDLEDPQWICAWQTALCQHLHLTGKIRIAAEGINGTVGGSKLATRLYVEVMLSFPLFKDDLCKDDFKTSKGGAHCFPELRVGVFEEIVPMGISPKKISYKKPGIHLSPGEFHKEVEKFLSQANQEQSDTILLDCRNFYESKIGRFQGCLAPDIRKFSYFPSYVDKNLELFREKRVLMYCTGGIRCERGSAYLKAKGVCKEVFQLKGGIHKYLEEFPDGFYKGKLFVFDERYALSYNSDVVSECSYCGARWDQYKLCSTPQCRQLVLTCPACQGQGFTACCVTCQDKGSRKVSGPMQDSFKEECECTARRPRIPRELLQHVRQPVSPEPGPDADEDGPVLM [TSTD2] | -0.113 | 0.0173 |
| MPVQAAQWTEFLSCPICYNEFDENVHKPISLGCSHTVCKTCLNKLHRKACPFDQTAINTDIDVLPVNFALLQLVGAQVPDHQSIKLSNLGENKHYEVAKKCVEDLALYLKPLSGGKGVASLNQSALSRPMQRKLVTLVNCQLVEEEGRVRAMRAARSLGERTVTELILQHQNPQQLSANLWAAVRARGCQFLGPAMQEEALKLVLLALEDGSALSRKVLVLFVVQRLEPRFPQASKTSIGHVVQLLYRASCFKVTKRDEDSSLMQLKEEFRSYEALRREHDAQIVHIAMEAGLRISPEQWSSLLYGDLAHKSHMQSIIDKLQSPESFAKSVQELTIVLQRTGDPANLNRLRPHLELLANIDPNPDAVSPTWEQLENAMVAVKTVVHGLVDFIQNYSRKGHETPQPQPNSKYKTSMCRDLRQQGGCPRGTNCTFAHSQEELEKYRLRNKKINATVRTFPLLNKVGVNNTVTTTAGNVISVIGSTETTGKIVPSTNGISNAENSVSQLISRSTDSTLRALETVKKVGKVGANGQNAAGPSADSVTENKIGSPPKTPVSNVAATSAGPSNVGTELNSVPQKSSPFLTRVPVYPPHSENIQYFQDPRTQIPFEVPQYPQTGYYPPPPTVPAGVAPCVPRFVRSNNVPESSLPPASMPYADHYSTFSPRDRMNSSPYQPPPPQPYGPVPPVPSGMYAPVYDSRRIWRPPMYQRDDIIRSNSLPPMDVMHSSVYQTSLRERYNSLDGYYSVACQPPSEPRTTVPLPREPCGHLKTSCEEQIRRKPDQWAQYHTQKAPLVSSTLPVATQSPTPPSPLFSVDFRADFSESVSGTKFEEDHLSHYSPWSCGTIGSCINAIDSEPKDVIANSNAVLMDLDSGDVKRRVHLFETQRRTKEEDPIIPFSDGPIISKWGAISRSSRTGYHTTDPVQATASQGSATKPISVSDYVPYVNAVDSRWSSYGNEATSSAHYVERDRFIVTDLSGHRKHSSTGDLLSLELQQAKSNSLLLQREANALAMQQKWNSLDEGRHLTLNLLSKEIELRNGELQSDYTEDATDTKPDRDIELELSALDTDEPDGQSEPIEEILDIQLGISSQNDQLLNGMAVENGHPVQQHQKEPPKQKKQSLGEDHVILEEQKTILPVTSCFSQPLPVSISNASCLPITTSVSAGNLILKTHVMSEDKNDFLKPVANGKMVNS [RC3H2] | -0.128 | 0.279 |
| MPVQAPQWTDFLSCPICTQTFDETIRKPISLGCGHTVCKMCLNKLHRKACPFDQTTINTDIELLPVNSALLQLVGAQVPEQQPITLCSGVEDTKHYEEAKKCVEELALYLKPLSSARGVGLNSTTQSVLSRPMQRKLVTLVHCQLVEEEGRIRAMRAARSLGERTVTELILQHQNPQQLSSNLWAAVRARGCQFLGPAMQEEALKLVLLALEDGSALSRKVLVLFVVQRLEPRFPQASKTSIGHVVQLLYRASCFKVTKRDEDSSLMQLKEEFRTYEALRREHDSQIVQIAMEAGLRIAPDQWSSLLYGDQSHKSHMQSIIDKLQTPASFAQSVQELTIALQRTGDPANLNRLRPHLELLANIDPSPDAPPPTWEQLENGLVAVRTVVHGLVDYIQNHSKKGADQQQPPQHSKYKTYMCRDMKQRGGCPRGASCTFAHSQEELEKFRKMNKRLVPRRPLSASLGQLNEVGLPSAAILPDEGAVDLPSRKPPALPNGIVSTGNTVTQLIPRGTDPSYDSSLKPGKIDHLSSSAPGSPPDLLESVPKSISALPVNPHSIPPRGPADLPPMPVTKPLQMVPRGSQLYPAQQTDVYYQDPRGAAPPFEPAPYQQGMYYTPPPQCVSRFVRPPPSAPEPAPPYLDHYPPYLQERVVNSQYGTQPQQYPPIYPSHYDGRRVYPAPSYTREEIFRESPIPIEIPPAAVPSYVPESRERYQQIESYYPVAPHPTQIRPSYLREPPYSRLPPPPQPHPSLDELHRRRKEIMAQLEERKVISPPPFAPSPTLPPTFHPEEFLDEDLKVAGKYKGNDYSQYSPWSCDTIGSYIGTKDAKPKDVVAAGSVEMMNVESKGMRDQRLDLQRRAAETSDDDLIPFGDRPTVSRFGAISRTSKTIYQGAGPMQAMAPQGAPTKSINISDYSPYGTHGGWGASPYSPHQNIPSQGHFSERERISMSEVASHGKPLPSAEREQLRLELQQLNHQISQQTQLRGLEAVSNRLVLQREANTLAGQSQPPPPPPPKWPGMISSEQLSLELHQVEREIGKRTRELSMENQCSLDMKSKLNTSKQAENGQPEPQNKVPAEDLTLTFSDVPNGSALTQENISLLSNKTSSLNLSEDPEGGGDNNDSQRSGVTPSSAP [RC3H1] | -0.0375 | 0.308 |
| MPVSTSLHQDGSQERPVSLTSTTSSSGSSCDSRSAMEEPSSSEAPAKNGAGSLRSRHLPNSNNNSSSWLNVKGPLSPFNSRAAAGPAHHKLSYLGRVVREIVETERMYVQDLRSIVEDYLLKIIDTPGLLKPEQVSALFGNIENIYALNSQLLRDLDSCNSDPVAVASCFVERSQEFDIYTQYCNNYPNSVAALTECMRDKQQAKFFRDRQELLQHSLPLGSYLLKPVQRILKYHLLLQEIAKHFDEEEDGFEVVEDAIDTMTCVAWYINDMKRRHEHAVRLQEIQSLLINWKGPDLTTYGELVLEGTFRVHRVRNERTFFLFDKTLLITKKRGDHFVYKGNIPCSSLMLIESTRDSLCFTVTHYKHSKQQYSIQAKTVEEKRNWTHHIKRLILENHHATIPQKAKEAILEMDSYYPNRYRCSPERLKKAWSSQDEVSTNVRQGRRQSEPTKHLLRQLNEKARAAGMKGKGRRESESSRSSRRPSGRSPTSTEKRMSFESISSLPEVEPDPEAGSEQEVFSAVEGPSAEETPSDTESPEVLETQLDAHQGLLGMDPPGDMVDFVAAESTEDLKALSSEEEEEMGGAAQEPESLLPPSVLDQASVIAERFVSSFSRRSSVAQEDSKSSGFGSPRLVSRSSSVLSLEGSEKGLARHGSATDSLSCQLSPEVDISVGVATEDSPSVNGMEPPSPGCPVEPDRSSCKKKESALSTRDRLLLDKIKSYYENAEHHDAGFSVRRRESLSYIPKGLVRNSISRFNSLPRPDPEPVPPVGSKRQVGSRPTSWALFELPGPSQAVKGDPPPISDAEFRPSSEIVKIWEGMESSGGSPGKGPGQGQANGFDLHEPLFILEEHELGAITEESATASPESSSPTEGRSPAHLARELKELVKELSSSTQGELVAPLHPRIVQLSHVMDSHVSERVKNKVYQLARQYSLRIKSNKPVMARPPLQWEKVAPERDGKSPTVPCLQEEAGEPLGGKGKRKPVLSLFDYEQLMAQEHSPPKPSSAGEMSPQRFFFNPSAVSQRTTSPGGRPSARSPLSPTETFSWPDVRELCSKYASRDEARRAGGGRPRGPPVNRSHSVPENMVEPPLSGRVGRCRSLSTKRGRGGGEAAQSPGPLPQSKPDGGETLYVTADLTLEDNRRVIVMEKGPLPSPTAGLEESSGQGPSSPVALLGQVQDFQQSAECQPKEEGSRDPADPSQQGRVRNLREKFQALNSVG [PLEKHG3] | -0.239 | -0.79 |
| MQPGSSRCEEETPSLLWGLDPVFLAFAKLYIRDILDMKESRQVPGVFLYNGHPIKQVDVLGTVIGVRERDAFYSYGVDDSTGVINCICWKKLNTESVSAAPSAARELSLTSQLKKLQETIEQKTKIEIGDTIRVRGSIRTYREEREIHATTYYKVDDPVWNIQIARMLELPTIYRKVYDQPFHSSALEKEEALSNPGALDLPSLTSLLSEKAKEFLMENRVQSFYQQELEMVESLLSLANQPVIHSASSDQVNFKKDTTSKAIHSIFKNAIQLLQEKGLVFQKDDGFDNLYYVTREDKDLHRKIHRIIQQDCQKPNHMEKGCHFLHILACARLSIRPGLSEAVLQQVLELLEDQSDIVSTMEHYYTAF [OBFC1] | -0.0863 | 0.0155 |
